Changes are numbered by the printed parent chain.
Key:
[1] = biological target: T1, C4-N6 modified GALNS (Homo sapiens)
T1 sequence: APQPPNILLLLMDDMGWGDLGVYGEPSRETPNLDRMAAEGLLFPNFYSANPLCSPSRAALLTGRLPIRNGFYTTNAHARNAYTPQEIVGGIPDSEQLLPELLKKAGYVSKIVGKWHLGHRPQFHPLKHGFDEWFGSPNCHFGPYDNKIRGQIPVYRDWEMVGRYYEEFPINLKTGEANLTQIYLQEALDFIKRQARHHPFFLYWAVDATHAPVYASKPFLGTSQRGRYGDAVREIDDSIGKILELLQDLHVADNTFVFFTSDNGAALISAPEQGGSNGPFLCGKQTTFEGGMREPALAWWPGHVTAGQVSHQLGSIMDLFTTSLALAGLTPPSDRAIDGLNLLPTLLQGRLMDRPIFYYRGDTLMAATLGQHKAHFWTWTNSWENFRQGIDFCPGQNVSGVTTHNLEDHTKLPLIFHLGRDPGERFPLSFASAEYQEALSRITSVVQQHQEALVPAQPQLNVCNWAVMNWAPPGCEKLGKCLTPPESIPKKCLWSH

[2] = biological target: T2, E8-N13 modified GALNS (Homo sapiens)
T2 sequence: T1 sequence with I148A, G150P, Q151N, Y203I, A208L, A211L

[3] = biological target: T3, GALNS-201 (C4-N6 + I10-N14) (Homo sapiens)
T3 sequence: T1 sequence with P455G, A456I, P458G

[4] = biological target: T4, GALNS-231 (C4-N6 + E8-N14 + I10-N14) (Homo sapiens)
T4 sequence: T1 sequence with Y203I, A208L, A211I, P455G, A456I, P458G

[5] = biological target: T5, GALNS-242 (C4-N7 + E8-N11) (Homo sapiens)
T5 sequence: T1 sequence with I148L, Y203I, A205L, A211L

[6] = biological target: T6, GALNS-315 (E8-N14 + I10-N14) (Homo sapiens)
T6 sequence: T1 sequence with I148A, G150P, Q151N, Y203I, A208L, A211I, P455G, A456I, P458G

[7] = biological target: T7, I10-N14 modified GALNS (Homo sapiens)
T7 sequence: T1 sequence with I148A, G150P, Q151N, P455G, A456I, P458G

[8] = biological target: T8, Wild type N-acetylgalactosamine-6-sulfate sulfatase (GALNS) (Homo sapiens)
T8 sequence: T1 sequence with I148A, G150P, Q151N

B1: Sulfatase-modifying factor 1 (SUMF1) (enzyme)
chain: SQEAGTGAGAGSLAGSCGCGTPQRPGAHGSSAAAHRYSREANAPGPVPGERQLAHSKMVPIPAGVFTMGTDDPQIKQDGEAPARRVTIDAFYMDAYEVSNTEFEKFVNSTGYLTEAEKFGDSFVFEGMLSEQVKTNIQQAVAAAPWWLPVKGANWRHPEGPDSTILHRPDHPVLHVSWNDAVAYCTWAGKRLPTEAEWEYSCRGGLHNRLFPWGNKLQPKGQHYANIWQGEFPVTNTGEDGFQGTAPVDAFPPNGYGLYNIVGNAWEWTSDWWTVHHSVEETLNPKGPPSGKDRVKKGGSYMCHRSYCYRYRCAARSQNTPDSSASNLGFRCAADRLPTMD
[1]
  GALNS enzyme activity in the pellet of COS-7 cells co-transfected with SUMF1, percentage of GALNS without SUMF1 (percent of GALNS (without SUMF1)): 443
[2]
  GALNS enzyme activity in the pellet of COS-7 cells co-transfected with SUMF1, percentage of GALNS without SUMF1 (percent of GALNS (without SUMF1)): 567
[3]
  GALNS enzyme activity in the pellet of COS-7 cells co-transfected with SUMF1, percentage of GALNS without SUMF1 (percent of GALNS (without SUMF1)): 545
[4]
  GALNS enzyme activity in the pellet of COS-7 cells co-transfected with SUMF1, percentage of GALNS without SUMF1 (percent of GALNS (without SUMF1)): 628
[5]
  GALNS enzyme activity in the pellet of COS-7 cells co-transfected with SUMF1, percentage of GALNS without SUMF1 (percent of GALNS (without SUMF1)): 434
[6]
  GALNS enzyme activity in the pellet of COS-7 cells co-transfected with SUMF1, percentage of GALNS without SUMF1 (percent of GALNS (without SUMF1)): 563
[7]
  GALNS enzyme activity in the pellet of COS-7 cells co-transfected with SUMF1, percentage of GALNS without SUMF1 (percent of GALNS (without SUMF1)): 568
[8]
  GALNS enzyme activity in the pellet of COS-7 cells co-transfected with SUMF1, percentage of GALNS without SUMF1 (percent of GALNS (without SUMF1)): 1930
